Source: PMC4072508, “Genome-Wide Prediction and Validation of Peptides That Bind Human Prosurvival Bcl-2 Proteins” (PLoS Computational Biology, 2014)

T1: Bcl-w, Q92843
T1 chain: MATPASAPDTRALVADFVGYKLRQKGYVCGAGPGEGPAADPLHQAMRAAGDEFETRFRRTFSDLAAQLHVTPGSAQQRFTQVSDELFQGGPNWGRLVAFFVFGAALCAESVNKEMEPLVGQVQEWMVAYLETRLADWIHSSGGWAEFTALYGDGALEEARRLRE

T2: Bfl-1, Q16548
T2 chain: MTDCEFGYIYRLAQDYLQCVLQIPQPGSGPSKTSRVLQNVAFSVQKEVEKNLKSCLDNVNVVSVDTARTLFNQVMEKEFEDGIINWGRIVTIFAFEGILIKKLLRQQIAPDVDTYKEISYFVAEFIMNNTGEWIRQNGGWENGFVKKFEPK

T3: Mcl-1, Q07820
T3 chain: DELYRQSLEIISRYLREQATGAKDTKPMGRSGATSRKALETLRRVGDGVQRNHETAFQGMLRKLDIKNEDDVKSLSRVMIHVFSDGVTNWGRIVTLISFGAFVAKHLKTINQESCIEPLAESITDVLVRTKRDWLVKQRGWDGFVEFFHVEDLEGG


Columns and labels:
Assay in all cases: peptide SPOT array, c-Myc-tagged receptor at 1 uM or 100 nM, anti-c-Myc-Cy3
Bcl-2, P10415 = target: Bcl-2, P10415
Sequence of Bcl-2, P10415 (P10415 1-217): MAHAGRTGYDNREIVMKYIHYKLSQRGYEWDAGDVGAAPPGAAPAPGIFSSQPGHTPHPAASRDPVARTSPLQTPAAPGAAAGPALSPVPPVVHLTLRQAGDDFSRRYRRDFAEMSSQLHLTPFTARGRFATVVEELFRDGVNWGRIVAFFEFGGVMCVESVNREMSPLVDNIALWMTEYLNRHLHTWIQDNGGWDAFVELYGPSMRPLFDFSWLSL

Bcl-w, Q92843 = target: T1, Bcl-w, Q92843
Bcl-xL, Q07817 = target: Bcl-xL, Q07817
Sequence of Bcl-xL, Q07817 (Q07817 1-209): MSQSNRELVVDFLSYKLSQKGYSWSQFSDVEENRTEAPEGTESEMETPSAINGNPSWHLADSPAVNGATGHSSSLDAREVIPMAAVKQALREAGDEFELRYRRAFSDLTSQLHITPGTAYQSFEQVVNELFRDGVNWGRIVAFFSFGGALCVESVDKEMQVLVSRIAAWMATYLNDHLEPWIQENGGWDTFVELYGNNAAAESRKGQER

Bfl-1, Q16548 = target: T2, Bfl-1, Q16548
Mcl-1, Q07820 = target: T3, Mcl-1, Q07820

Binder	SPOT signal as a fraction of Bim BH3's signal on the same receptor and array (Bcl-2, P10415)	SPOT signal as a fraction of Bim BH3's signal on the same receptor and array (Bcl-w, Q92843)	SPOT signal as a fraction of Bim BH3's signal on the same receptor and array (Bcl-xL, Q07817)	SPOT signal as a fraction of Bim BH3's signal on the same receptor and array (Bfl-1, Q16548)	SPOT signal as a fraction of Bim BH3's signal on the same receptor and array (Mcl-1, Q07820)
NRKGEKNGKGLRHFSMKVCEKVQRKG [TFDP1]	0.18	0.91	0.54	0.52	0.3
IKEAADIIQKLHLIAQELPFDRFSEV [EXOC5]	0.01	0.21	0.11	0.03	0.09
RQAFYLHTTKLTRIARRLCREILRPW [MTA1]	0.23	0.89	0.75	0.72	0.41
EGMRTILVDWLVEVGEEYKLRAETLY [CCNA1]	0.01	0.02	0.05	0.02	0.05
ALTVKEMAQMLQSFGTELAETELPDD [MCF2]	0.01	0.02	0.03	0.01	0.03
DQEEACASRQLHSLASFSTVTARRNP [INCA1]	0.08	0.2	0.12	0.35	0.23
AIPRAEVAELLVHSGDFLVRESQGKQ [FES]	0.01	0.02	0.03	0.02	0.03
LFRRRDISSSLNSLADSNAREFEEES	0.02	0.04	0.08	0.05	0.04
DATHDEAVQALKRAGKEVLLEVKYMR [SNTB1]	0.01	0.02	0.04	0.03	0.02
HRTSNVLTLSLKRFANFSGGKITKDV [USP36]	0.2	0.65	0.55	0.48	0.29
NMSNYSSSSLLSGAGKDSLVEHDEEF [KIAA0367]	0.01	0.02	0.03	0.01	0.02
MRPEIWIAQEDRRIGDEFNAYYARRV [BCL2L11]	0.05	0.06	0.09	0.05	0.05
KWTAEEVVLWLEQLGPWASLYRERFL [BFAR]	0.02	0.03	0.07	0.04	0.05
FSVDLNASRSLSQVAMDLHEAVSMKL [DCST2]	0.01	0.03	0.03	0.08	0.06
KFMKTIPGTALVEMGDEYAVERAVTH [HNRPLL]	0.01	0.02	0.04	0.02	0.02
KEVEDCVPVFLKHIAHDIYVCGKTIN [TUBGCP6]	0.01	0.02	0.04	0.03	0.02
LKELDLSGNSLSHSAVKSLCKTLRRP [NLRP1]	0.09	0.41	0.4	0.42	0.13
ASEAMLFEEALEKYGKDFNDIRQDFL	0.01	0.02	0.03	0.01	0.03
SCMATVIHNPLKALGDQFYKEAIEHC [DPF3]	0.15	0.2	0.13	0.03	0.02
NKDGKSVSNRLRRLSDNCGGKVLSIT [KIAA0430]	0.13	0.61	0.56	0.31	0.21
LCKEKPTTALLDKVADNLAIQLAAVT [ILF3]	0.01	0.02	0.03	0.02	0.02
GAQHSTMTSTLRRLGEDIFKGVVTKG [CCDC138]	0.09	0.64	0.12	0.45	0.43
